Assay [1] deals with cynomolgus monkey EpoR (cynoEpoR) (cynomolgus monkey). As to the kind of experiment: SPR, Biacore T100; scFv-Fc captured on CM5 chip, EpoR as analyte; fit to steady-state model (off-rate too rapid); clone #34, cynomolgus EpoR, steady-state fit. (SPR reads the build-up and loss of mass on a sensor chip optically.)
Assay [2] concerns the target T1, soluble human erythropoietin receptor protein (huEpoR) (human) (UniProt P19235).
T1 sequence (looked up): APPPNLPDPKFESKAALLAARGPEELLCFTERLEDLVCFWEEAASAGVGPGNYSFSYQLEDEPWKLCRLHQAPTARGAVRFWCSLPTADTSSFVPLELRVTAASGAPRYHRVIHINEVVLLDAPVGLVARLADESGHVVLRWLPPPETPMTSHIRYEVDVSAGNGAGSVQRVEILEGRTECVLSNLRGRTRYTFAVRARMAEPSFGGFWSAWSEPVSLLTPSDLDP
The assay is described as follows: SPR, Biacore T100; scFv-Fc captured by anti-human IgG Fc on CM5 chip, EpoR as analyte.

The target in assay [3] is T2, human erythropoietin receptor (huEpoR), cell surface expressed (human) (UniProt P19235).
T2 sequence (looked up): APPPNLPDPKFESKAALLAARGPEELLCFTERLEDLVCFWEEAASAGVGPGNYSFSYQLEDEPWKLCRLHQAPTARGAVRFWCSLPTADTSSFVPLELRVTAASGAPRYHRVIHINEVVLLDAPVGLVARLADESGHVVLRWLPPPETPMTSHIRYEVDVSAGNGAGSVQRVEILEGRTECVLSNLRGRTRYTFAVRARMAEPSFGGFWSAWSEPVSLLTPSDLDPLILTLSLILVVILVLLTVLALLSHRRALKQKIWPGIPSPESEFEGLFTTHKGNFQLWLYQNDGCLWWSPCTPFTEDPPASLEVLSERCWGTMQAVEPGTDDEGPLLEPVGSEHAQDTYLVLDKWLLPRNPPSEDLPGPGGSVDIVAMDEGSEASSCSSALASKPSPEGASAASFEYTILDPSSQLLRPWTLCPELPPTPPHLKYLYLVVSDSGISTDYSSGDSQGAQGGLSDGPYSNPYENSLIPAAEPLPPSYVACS
As to the kind of experiment: cell-based or functional assay.

The results in this text go back to patent publication US20080124340A1.

B1: clone 34 scFv-Fc protein (Fc fusion, part only; not given: Linker and IgG1 Fc, not shown: another chain or arm of the molecule; a dimerising Fc or GST; small tags and cut ends)
VH: QVQLQQSGAEVKKPGASVKVSCKASGYTFSGYYMHWVRQAPGQGLEWMGWINPNSGSTNYAQKFLGRVTMTRDTSISTAYMELSSLRSDDTAVYYCARGHSGDYFDYWGQGTLVTVSA
VL: EIVLTQSPSSLSASVGDRVTITCRASQSVSSWLAWYQQRPGQAPKLLIYAARLRGGGPSRFSGSGSGTEFTLTISSLQPEDFATYFCQQSYSTPISFGGGTKLEIK
As for B1, the Kd in assay [1] was found to be 5810 nM. In assay [2], the Kd came to 378 nM, the koff came out at 0.203 s⁻¹ and the kon was found to be 536000 M⁻¹ s⁻¹. For the same molecule, the Average EC50, UT-7-luciferase assay in assay [3] was found to be 0.11 nM.

For orientation: Kd means the equilibrium constant for the complex coming apart. The koff is the rate constant with which the complex falls apart. As usually defined, the kon is a measure of how fast the partners come together.
